Source: patent publication US20070281327A1 (published 2007)

Key:
[1] = biological target: human Mpl expressed on BaF3 cells (BaF3-human Mpl) (human) (UniProt P40238); test: cell-based or functional assay
[2] = biological target: T1, Human Mpl-IgG Fc fusion protein (hMpl-Fc) (human, UniProt P40238 26-491); test: ELISA on plates coated with hMpl-Fc, sc(Fv)2 detected by anti-FLAG M2
T1 construct: range 26-491; Expressed in CHO-DG44 cells with a 19-amino acid signal peptide from a human IgG H chain variable region, which is not part of the mature protein; No numbering scheme is named for Asp 216; also called shMPL-Fc; not shown: Fc region of human IgG-gamma1, a region downstream of Asp 216
T1 sequence: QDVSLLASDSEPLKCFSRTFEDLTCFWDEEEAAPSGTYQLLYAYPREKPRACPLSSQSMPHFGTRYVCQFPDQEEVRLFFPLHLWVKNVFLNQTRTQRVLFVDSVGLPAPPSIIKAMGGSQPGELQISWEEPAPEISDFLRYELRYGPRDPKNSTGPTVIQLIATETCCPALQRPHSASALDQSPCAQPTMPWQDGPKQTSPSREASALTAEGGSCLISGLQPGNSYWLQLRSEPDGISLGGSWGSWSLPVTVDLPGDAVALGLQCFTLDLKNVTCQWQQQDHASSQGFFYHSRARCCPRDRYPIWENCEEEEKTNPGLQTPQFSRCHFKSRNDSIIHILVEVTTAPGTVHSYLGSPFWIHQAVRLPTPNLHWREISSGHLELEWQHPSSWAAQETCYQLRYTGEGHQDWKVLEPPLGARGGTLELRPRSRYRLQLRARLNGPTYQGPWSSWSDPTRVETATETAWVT
Procedure: (§1) The binding activity of anti-human Mpl single-chain antibody to hMPL-Fc was assessed using ELISA. After plates were coated with 0.5 μg/ml purified hMPL-Fc, blocking treatment was carried out using Diluent buffer. A purified product of VA130 was diluted to an appropriate concentration and added to the plates. Then, the plates were allowed to stand at room temperature for one hour. After washing with Rinse buffer, 1000-times-diluted ANTI-FLAG M2 Monoclonal Antibody (SIGMA-ALDRICH) was added. The plates were incubated at room temperature for one hour. Next, after washing with Rinse buffer, 1000-times-diluted Alkaline Phosphatase-labeled anti-mouse IgG antibody (Zymed) was added, and the plates were allowed to stand at room temperature for one hour. After washing with Rinse buffer, color development was achieved using SIGMA104 (SIGMA-ALDRICH) diluted to 1 mg/ml in substrate buffer. Color was developed for 15 minutes at room temperature and then absorbance was determined at 405 nm with Benchmark Plus.

[3] = biological target: T2, human Mpl expressed on BaF3 cells (BaF3-human Mpl) (human, UniProt P40238 26-635); test: cell-based or functional assay
T2 sequence (looked up): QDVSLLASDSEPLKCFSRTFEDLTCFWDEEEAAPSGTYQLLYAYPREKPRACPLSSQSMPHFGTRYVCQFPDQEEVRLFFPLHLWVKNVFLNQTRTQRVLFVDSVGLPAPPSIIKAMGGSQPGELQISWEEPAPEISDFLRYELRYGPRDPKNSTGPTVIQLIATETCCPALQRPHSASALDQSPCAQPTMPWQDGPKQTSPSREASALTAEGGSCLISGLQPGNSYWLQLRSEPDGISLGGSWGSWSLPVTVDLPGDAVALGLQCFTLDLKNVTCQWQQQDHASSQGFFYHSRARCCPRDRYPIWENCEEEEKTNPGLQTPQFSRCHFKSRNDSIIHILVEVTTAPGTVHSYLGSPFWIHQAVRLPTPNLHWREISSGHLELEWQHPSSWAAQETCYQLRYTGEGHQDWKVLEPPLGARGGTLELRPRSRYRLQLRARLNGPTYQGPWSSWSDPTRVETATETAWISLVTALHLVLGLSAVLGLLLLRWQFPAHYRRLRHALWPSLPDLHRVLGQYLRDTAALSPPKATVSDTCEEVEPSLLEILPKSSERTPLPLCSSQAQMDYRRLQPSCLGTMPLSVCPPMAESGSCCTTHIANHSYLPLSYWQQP

[4] = biological target: T1, Human Mpl-IgG Fc fusion protein …; test: ELISA on plates coated with hMpl-Fc, IgG
[5] = biological target: T1, Human Mpl-IgG Fc fusion protein …; test: ELISA on plates coated with hMpl-Fc, diabody detected by anti-FLAG M2
Procedure: as §1

B1: VA130 sc(Fv)2 (other)
chain: QVQLQQSGPELVKPGASVKISCKASGYAFSSSWMNWVKQRPGKGLEWIGRIYPGDGDTNYNGKFKGKATLTADKSSSTAYIQLSSLTSEDSAVYFCARGYADYSFAYWGQGTLVTVSAGGGGSGGGGSGGGGSDIVMTQAAPSVPVTPGESVSISCRSSKSLLHSNGNTYLYWFLQRPGQSPQLLIYRMSNLASGVPDRFSGSGSGTAFTLRISRVEAEDVGVYYCMQHLEYPYTFGSGTKLEIKGGGGSGGGGSGGGGSQVQLQQSGPELVKPGASVKISCKASGYAFSSSWMNWVKQRPGKGLEWIGRIYPGDGDTNYNGKFKGKATLTADKSSSTAYIQLSSLTSEDSAVYFCARGYADYSFAYWGQGTLVTVSAGGGGSGGGGSGGGGSDIVMTQAAPSVPVTPGESVSISCRSSKSLLHSNGNTYLYWFLQRPGQSPQLLIYRMSNLASGVPDRFSGSGSGTAFTLRISRVEAEDVGVYYCMQHLEYPYTFGSGTKLEIKDYKDDDDK
notes: A single polypeptide with two VH and two VL units from VA130; also called anti-human Mpl antibody sc(Fv)2; VA130 single-chain antibody
Agonistic activity, Analysis using Baf-hMpl (EC50) [1]: 1.02 nM
EC50 [2]: 0.27 nM

B2: VA130 IgG (mouse monoclonal anti-human Mpl antibody VA130) (antibody, V domains shown)
VH: QVQLQQSGPELVKPGASVKISCKASGYAFSSSWMNWVKQRPGKGLEWIGRIYPGDGDTNYNGKFKGKATLTADKSSSTAYIQLSSLTSEDSAVYFCARGYADYSFAYWGQGTLVTVSA
VL: DIVMTQAAPSVPVTPGESVSISCRSSKSLLHSNGNTYLYWFLQRPGQSPQLLIYRMSNLASGVPDRFSGSGSGTAFTLRISRVEAEDVGVYYCMQHLEYPYTFGSGTKLEIK
notes: Whole mouse IgG from a hybridoma; also called VA130 antibody; VA130 anti-human Mpl antibody
TPO-like agonist activity, BaF3-human Mpl proliferation (WST-8), EC50 [3]: > 100 nM
EC50 [4]: 0.38 nM

B3: VB16 IgG (mouse monoclonal anti-human Mpl antibody VB16) (antibody, V domains shown)
VH: QVQLQQPGTELVRPGASVKLSCKASGYTFTDYWVNWVKQRPGRGLEWIGRIHPYDSETHYNQKFKNKATLTVDKSSSTAYIQLSSLTSEDSAVYYCASGGWFASWGQGTLVTVSA
VL: DIVMTQAAPSVPVTPGESVSISCRSSKSLLYSNGNTYLYWFLQRPGQSPQLLIYRMSNLASGVPDRFSGSGSGTAFTLTISSVEAEDVGVYYCMQHLEYPYTFGSGTKLEIK
EC50 [4]: 0.15 nM

B4: VA130 diabody (VA130 single-chain Fv with a five-amino acid (Gly4Ser)1 linker, FLAG-tagged) (scFv)
scFv: QVQLQQSGPELVKPGASVKISCKASGYAFSSSWMNWVKQRPGKGLEWIGRIYPGDGDTNYNGKFKGKATLTADKSSSTAYIQLSSLTSEDSAVYFCARGYADYSFAYWGQGTLVTVSAGGGGSDIVMTQAAPSVPVTPGESVSISCRSSKSLLHSNGNTYLYWFLQRPGQSPQLLIYRMSNLASGVPDRFSGSGSGTAFTLRISRVEAEDVGVYYCMQHLEYPYTFGSGTKLEIKDYKDDDDK
notes: The order is VH-(Gly4Ser)1-VL-FLAG; also called VA130 db
Agonistic activity, Analysis using Baf-hMpl (EC50) [1]: 0.222 nM
EC50 [5]: 0.11 nM
